Source: patent publication US20200332009A1 (Innovent, published 2020)
Like-named read-outs stand apart in the source and are kept apart here.

T1: human LAG-3-His (human, UniProt P18627 23-450)
T1 construct: also called hLAG-3; human LAG-3 antigen (ArcoBiosystems); not shown: His tag
T1 sequence (looked up): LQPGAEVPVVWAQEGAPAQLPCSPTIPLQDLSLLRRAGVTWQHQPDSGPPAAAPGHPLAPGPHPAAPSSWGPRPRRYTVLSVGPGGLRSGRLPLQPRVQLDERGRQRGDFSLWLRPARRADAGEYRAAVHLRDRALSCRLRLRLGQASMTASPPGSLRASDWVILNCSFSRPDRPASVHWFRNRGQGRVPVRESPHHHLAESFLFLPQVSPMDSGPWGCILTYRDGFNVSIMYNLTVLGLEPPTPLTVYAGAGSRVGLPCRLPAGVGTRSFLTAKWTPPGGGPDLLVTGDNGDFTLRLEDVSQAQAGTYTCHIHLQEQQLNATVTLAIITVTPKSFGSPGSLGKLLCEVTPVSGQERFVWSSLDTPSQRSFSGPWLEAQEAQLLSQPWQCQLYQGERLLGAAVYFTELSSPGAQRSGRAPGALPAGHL


Legend:
[1] = biological target: T2, human PD-L1 overexpressed on CHO cells (CHO-PDL1) (human, UniProt Q9NZQ7 19-290); assay: flow cytometry (FACS) on CHO-PDL1 cells
T2 construct: whole, on cells; also called CHO cells overexpressing human PD-L1

[2] = biological target: T3, human PD-L1 (purchased from Acrobiosystems) (human, UniProt Q9NZQ7 19-238); assay: biological optical interferometry (ForteBio), antibody on sensor, antigen in solution
T3 construct: also called hPD-L1
Method: The equilibrium dissociation constant (KD) for binding of the antibody of the invention to human PD-L1 was determined by biological optical interferometry (ForteBio). A ForteBio affinity assay of prior art was performed (Estep, P., et al, High throughput solution based measurement of antibody-antigen affinity and epitope binning. MAbs, 2013.5(2):270-8).
(§1) SD buffer, antibodies, and antigens (including human PD-L1, mouse PD-L1 and Macaca fascicularis PD-L1, all purchased from Acrobiosystems) each of 100 μL were added to 96-well black polystyrene half area microplates (Greiner, 675076). The sensors were arranged according to the positions of the samples. The instrument settings were as follows: the operation procedures were Baseline, Loading ˜1 nm, Baseline, Association, and Dissociation. The run time of each procedure was dependent on the rates of association and dissociation. The rotation speed was 400 rpm, and the temperature was 30° C. The KD values were analyzed by ForteBio analysis software.

[3] = biological target: PD-L1 on CHOK1-PDL1 cells (Promega PD-1/PD-L1 Blockade Bioassay) (UniProt Q9NZQ7 19-290, limits assumed); assay: cell-based or functional assay
[4] = biological target: T3, human PD-L1 (purchased from …); assay: biological optical interferometry (ForteBio), antibody on sensor, antigen in solution; remark: listed apart in the source
Method: as §1
The equilibrium dissociation constant (KD) binding of the humanized antibodies of different Fc subtypes of the invention to human PD-L1 was determined by ForteBio. The ForteBio affinity assay was shown in Example 2.

human LAG-3-His = biological target: T1, human LAG-3-His; assay: biological optical interferometry (ForteBio), antibody on AHQ tip, human LAG-3-His 100 nM in solution, univalent, 1:1 model
Method: The equilibrium dissociation constant (KD) for binding of ADI31853 to human LAG-3 (hLAG-3) was measured by biological optical interferometry (ForteBio). A ForteBio affinity assay of prior art was performed (Estep, P., et al, High throughput solution based measurement of antibody-antigen affinity and epitope binning. MAbs, 2013.5(2):270-8). Briefly, the sensor was equilibrated offline in assay buffer for 30 minutes, and on-line detection was then conducted for 60 seconds to establish a baseline. The purified antibody obtained as described above was loaded on-line onto an AHQ sensor (ForteBio) for ForteBio affinity assay. The sensor with the loaded antibody was then exposed to 100 nM of a human LAG-3 antigen (ArcoBiosystems) for 5 minutes before transferring the sensor to the assay buffer for dissociation for 5 minutes for dissociation rate measurement. Kinetic analysis was performed using a 1:1 binding model.

[5] = biological target: T2, human PD-L1 overexpressed on CHO cells …; assay: flow cytometry (FACS) on CHO-PDL1 cells; the table gives no unit, the axis is Con(nM); the text gives this value to 4-26.6
Method: (§2) CHO-PDL1 cells were counted, diluted to 1×10⁶ cells/mL, and added to each well of a U-shaped bottom 96-well plates at 100 μL/well. The suspension was centrifuged at 400 g for 5 min, and the supernatant was discarded. […] The cells were resuspended to a volume of 100 μL/well, and then left on ice for 30 min. The suspension was centrifuged at 400 g for 5 min, and the supernatant was discarded. The cells were washed once with PBS. The mixture was centrifuged at 400 g for 5 min, and the supernatant was discarded. 100 μL of FITC-labeled secondary antibody for anti-mouse-Fab (Jackson Immuno Research) (diluted in PBS in 1:500) was added per well, and 100 μL of FITC-labeled secondary antibody for anti-human-Fab (Jackson Immuno Research) was added to the cells to which the positive control antibody was added. The cells were incubated for 30 min on ice in the dark. The cells were centrifuged at 400 g for 5 min with the supernatant being discarded, and were washed once with a PBS. The cells were resuspended with 100 μL of 1×PBS, and detected by FACS.

[6] = biological target: T2, human PD-L1 overexpressed on CHO cells …; assay: flow cytometry (FACS) on CHO-PDL1 cells; the table gives no unit, the axis is Con(nM); the text gives this value to 4-79.2
Method: as §2

T2 sequence (Q9NZQ7 19-290): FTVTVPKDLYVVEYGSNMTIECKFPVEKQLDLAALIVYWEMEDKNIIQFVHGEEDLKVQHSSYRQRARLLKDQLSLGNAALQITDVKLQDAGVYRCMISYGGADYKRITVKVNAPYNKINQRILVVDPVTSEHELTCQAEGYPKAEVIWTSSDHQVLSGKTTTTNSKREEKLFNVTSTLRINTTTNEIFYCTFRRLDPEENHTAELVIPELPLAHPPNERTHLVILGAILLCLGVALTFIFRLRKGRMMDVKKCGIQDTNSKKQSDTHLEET
PD-L1 on CHOK1-PDL1 cells (Promega PD-1/PD-L1 Blockade Bioassay), sequence (Q9NZQ7 19-290 limits assumed): as the sequence (Q9NZQ7 19-290) above
T3 sequence (Q9NZQ7 19-238 limits assumed): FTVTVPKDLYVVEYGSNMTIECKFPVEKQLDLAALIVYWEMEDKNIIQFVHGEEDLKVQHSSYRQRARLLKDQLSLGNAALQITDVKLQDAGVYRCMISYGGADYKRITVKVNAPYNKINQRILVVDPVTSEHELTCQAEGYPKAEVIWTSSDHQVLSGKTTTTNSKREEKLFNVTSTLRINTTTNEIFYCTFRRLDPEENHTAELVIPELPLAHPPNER

Binder | EC50 [1] [nM] | Kd [2] [nM] | EC50 of the NFAT luciferase reporter signal (blockade of PD-1 on Jurkat-PD1 cells binding PD-L1 on CHOK1-PDL1 cells) [3] [nM] | Kd [4] [nM] | further results
3-266.1 (antibody, human IgG1, kappa, N297A, V domains shown, also called chimeric antibody 3-266.1) VH: EVQLQQSVAELVKPGASVKLSCTASGFNIEDTYIHWVKQRPEQGLEWIGRIDPANDDTKYDPKFQGKATITADTSSNTAYLQLSSLTPEDTAVYYCGRGLGRWFAYWGQGTLVTVSA VL: SIVMTQSHKFMSTSIGDRVNISCKASQDVINAVAWCQQKPGQSPKLLIYSASNRYTGVPDRFTGSGSGTDFTFTISSVQAEDLAVYYCQQHYSPPLTFGGGTKLELKR | 2.14 | 0.98 |  |  | 
HZ3266-IgG1N297A (antibody, Humanized form of 3-266.1, human IgG1 with N297A, kappa) heavy: not shown light: GIVMTQSPDSLAVSLGERATINCKASQDVINAVAWYQQKPGQSPKLLIYSASNRYTGVPDRFSGSGSGTDFTLTISSLQAEDLAVYYCQQHYSPPLTFGGGTKVEIKRTVAAPSVFIFPPSDEQLKSGTASVVCLLNNFYPREAKVQWKVDNALQSGNSQESVTEQDSKDSTYSLSSTLTLSKADYEKHKVYACEVTHQGLSSPVTKSFNRGEC | 1.78 |  | 0.967 | 0.724 | 
ADI-31853 (antibody, human IgG4 S228P, kappa, F234A L235A, V domains shown, also called anti-human-LAG-3 antibody) VH: QLQLQESGPGLVKPSETLSLTCTVSGGSIYSESYYWGWIRQPPGKGLEWIGSIVYSGYTYYNPSLKSRVTISVDTSKNQFSLKLSSVTAADTAVYYCARVRTWDAAFDIWGQGTMVTVSS VL: DIQMTQSPSSLSASVGDRVTITCQASQDISNYLNWYQQKPGKAPKLLIYDASNLETGVPSRFSGSGSGTDFTFTISSLQPEDIATYYCQQVLELPPWTFGGGTKVEIKR |  |  |  |  | Kd (human LAG-3-His): 0.622 nM; koff (human LAG-3-His): 0.0002 s⁻¹; kon (human LAG-3-His): 322000 M⁻¹ s⁻¹
4-79.2 (antibody, human IgG1, kappa, N297A, V domains shown, Same remark on anti-mouse detection reagents as for 3-266.1; also called chimeric antibody 4-79.2) VH: EVQLQQSGPSLVKPSQTLSLTCSVTGDSITSGYWNWIREFPGNKLEYLGYISYTGSTYYNPSLKSRISITRDTSKNQYSLQLNSVTTEDTATYYCAKAPRWLSAMDYWGQGTSVTVSS VL: not shown | 2.6 | 7.56 |  |  | EC50 [5]: 1.99 nM
4-26.6 (antibody, human IgG1, kappa, N297A, V domains shown, Same remark on anti-mouse detection reagents as for 3-266.1; also called chimeric antibody 4-26.6) VH: QVQLKESGPSLVKPSQTLSLTCSVTGDSITSGYWNWIRKFPGNKLEYMGYISYSGSTYHNPSLKSRISITRDTSKNQFYLQLNSVTKEDTATYYCARGDLWPPWFAYWGQGTLVTVSA VL: not shown | 1.99 | 3.85 |  |  | EC50 [6]: 2.6 nM
4-48.5 (antibody, human IgG1, kappa, N297A, V domains shown, Same remark on anti-mouse detection reagents as for 3-266.1; also called chimeric antibody 4-48.5) VH: EVQLQQSGAELARPGASVKMSCKASGYTFTTYTMHWVKQRPGQGLEWIGNINPNSDYAIYNQKFKDKATLTADKSSNTAYMQLSGLTSEDSAVYYCAKQSFDYWGQGTTLTVSS VL: DIVLTQSPASLAVSLGQRATISCRASESVEFYGTSLLQWYQQKPGQPPKLLIYAASNVESGVPARFSGSGSGTDFSLNIHPVEVDDVALYFCHQGRKVPYTFGGGTKLEIKR | 2 | 1.23 |  |  | 

Continued, in another order:

EC50 [1] [nM] | Kd [2] [nM] | EC50 of the NFAT luciferase reporter signal (blockade of PD-1 on Jurkat-PD1 cells binding PD-L1 on CHOK1-PDL1 cells) [3] [nM] | Kd [4] [nM] | Binder | further results
1.86 |  |  | 1.32 | HZ3266-IgG4PAAK (antibody, Humanized form of 3-266.1, mutated human IgG4 constant region, kappa; also called HZ3266-G4PAAK; HZ3266-IgG4PAK) heavy: not shown light: GIVMTQSPDSLAVSLGERATINCKASQDVINAVAWYQQKPGQSPKLLIYSASNRYTGVPDRFSGSGSGTDFTLTISSLQAEDLAVYYCQQHYSPPLTFGGGTKVEIKRTVAAPSVFIFPPSDEQLKSGTASVVCLLNNFYPREAKVQWKVDNALQSGNSQESVTEQDSKDSTYSLSSTLTLSKADYEKHKVYACEVTHQGLSSPVTKSFNRGEC | 
1.81 |  | 0.623 | 0.935 | HZ3266-IgG1 (antibody, Humanized form of 3-266.1, human IgG1, kappa) heavy: not shown light: GIVMTQSPDSLAVSLGERATINCKASQDVINAVAWYQQKPGQSPKLLIYSASNRYTGVPDRFSGSGSGTDFTLTISSLQAEDLAVYYCQQHYSPPLTFGGGTKVEIKRTVAAPSVFIFPPSDEQLKSGTASVVCLLNNFYPREAKVQWKVDNALQSGNSQESVTEQDSKDSTYSLSSTLTLSKADYEKHKVYACEVTHQGLSSPVTKSFNRGEC | 
1.56 |  | 0.683 | 3.17 | HZ4485-IgG1N297A (antibody, V domains shown, Humanized form of 4-48.5, human IgG1 with N297A, kappa) VH: QVQLVQSGAEVAKPGASVKVSCKASGYTFTTYTMHWVRQRPGQGLEWIGNINPNSDYAIYAQKFQGRATMTADKSTNTAYMELSSLRSEDSAVYYCAKQSFDYWGQGTLVTVSS VL: DIVLTQSPASLAVSPGQRATITCRASESVEFYGTSLLQWYQQKPGQPPKLLIYAASNVESGVPARFSGSGSGTDFTLTINPVEADDTANYYCHQGRKVPYTFGQGTKLEIKR | 
